# T1: IL-18 receptor (IL-18Rα/IL-18Rβ) overexpressed on HEK-Blue IL-18 cells (Homo sapiens (Human), UniProt Q13478 19-541; O95256 20-599)
# T1 sequence 1: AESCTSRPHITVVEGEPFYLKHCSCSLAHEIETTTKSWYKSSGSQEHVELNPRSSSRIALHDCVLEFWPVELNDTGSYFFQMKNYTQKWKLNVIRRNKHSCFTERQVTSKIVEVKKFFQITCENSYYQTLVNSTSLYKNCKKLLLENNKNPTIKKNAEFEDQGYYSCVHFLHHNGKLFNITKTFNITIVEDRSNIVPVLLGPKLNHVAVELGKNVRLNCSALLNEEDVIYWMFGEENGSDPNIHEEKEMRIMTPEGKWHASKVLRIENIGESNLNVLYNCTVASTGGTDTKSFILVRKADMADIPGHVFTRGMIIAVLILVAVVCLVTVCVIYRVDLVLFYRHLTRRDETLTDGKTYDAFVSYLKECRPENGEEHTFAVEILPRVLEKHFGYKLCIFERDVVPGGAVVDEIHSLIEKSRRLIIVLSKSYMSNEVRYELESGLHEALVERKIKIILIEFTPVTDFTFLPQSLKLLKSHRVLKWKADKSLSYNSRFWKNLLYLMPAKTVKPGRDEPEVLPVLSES
# T1 sequence 2: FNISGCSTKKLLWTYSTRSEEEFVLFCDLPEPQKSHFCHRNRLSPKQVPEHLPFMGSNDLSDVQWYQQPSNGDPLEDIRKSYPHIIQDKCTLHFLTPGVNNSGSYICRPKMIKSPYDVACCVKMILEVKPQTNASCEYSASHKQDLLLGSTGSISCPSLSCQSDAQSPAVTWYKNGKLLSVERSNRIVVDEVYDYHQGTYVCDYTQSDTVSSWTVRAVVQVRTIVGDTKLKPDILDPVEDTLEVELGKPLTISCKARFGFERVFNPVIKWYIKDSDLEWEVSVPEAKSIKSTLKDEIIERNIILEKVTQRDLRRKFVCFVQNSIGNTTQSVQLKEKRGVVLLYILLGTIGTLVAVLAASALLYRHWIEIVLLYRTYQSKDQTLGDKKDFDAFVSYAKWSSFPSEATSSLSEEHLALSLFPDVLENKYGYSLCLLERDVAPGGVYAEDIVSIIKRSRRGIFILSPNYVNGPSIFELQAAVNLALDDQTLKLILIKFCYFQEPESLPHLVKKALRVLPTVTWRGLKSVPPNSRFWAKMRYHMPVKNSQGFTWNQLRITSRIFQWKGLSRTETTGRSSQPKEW
# Target: T1, IL-18 receptor (IL-18Rα/IL-18Rβ) …
# Experiment: cell-based or functional assay
Binder,HEK-Blue IL-18: Abs 405 [Abs],HEK-Blue IL-18: Fold over Background [fold]
"DGL293 (bispecific antibody, V domains shown) V domain 1: QVQLVESGGGLVQAGGSLRLSCAASGRTFSSYDMGWFRQAPGKEREFVAALRWSGGSTSYADSVKGRFTISRDNAKNTVYLHMNSLKPEDTAVYYCAATLETDSGTYWADYWGQGTQVTVSS V domain 2: QVQLVESGGDLVLPGGSLKLSCEASGSISSRNSMAWYRRAPGKQRELVAAISSISSGGRTDYADFVKGRFTIFRDTAKNMVYLQMNNLKPEDTAVYDCDDPIRVASLAYDDWGQGTQVTVSS",2.83,12.3
"DGL297 (bispecific antibody, V domains shown) V domain 1: QVQLVESGGGLVQAGGSLRLSCAASGRTFSSYTMGWFRQAPGKEREFVAAISWSAGRTYYADSVKGRFTISRDNAKNTVYLQMNSLKPEDTAVYFCAAEEAPDWAPIDCSGYGCLSLYDYWGQGTQVTVSS V domain 2: QVQLVESGGDLVLPGGSLKLSCEASGSISSRNSMAWYRRAPGKQRELVAAISSISSGGRTDYADFVKGRFTIFRDTAKNMVYLQMNNLKPEDTAVYDCDDPIRVASLAYDDWGQGTQVTVSS",0.63,2.7
"DGL294 (bispecific antibody, V domains shown) V domain 1: EVQLVESGGGLVQPGGSLRLSCAASGSIFSINAMGWYRQAPGKQREVVATSTGGGMTNYADSVKGRFTISRDNAKNTVYLQMNSLKPEDTAVYYCNADKDPFFPGDYWGQGTQVTVSS V domain 2: QVQLVESGGDLVLPGGSLKLSCEASGSISSRNSMAWYRRAPGKQRELVAAISSISSGGRTDYADFVKGRFTIFRDTAKNMVYLQMNNLKPEDTAVYDCDDPIRVASLAYDDWGQGTQVTVSS",0.86,3.7
"DGL295 (bispecific antibody, V domains shown) V domain 1: QVQLQESGGGLVQPGGSARLSCVASGIIFNDYHMGWYRQAPGKQRDLVAGITAGGSTTYADSVKGRFTISRDNAKHTVYLQMNNLSPEDTAVYYCNTFYNAILDWGKGTLVTVSS V domain 2: QVQLVESGGDLVLPGGSLKLSCEASGSISSRNSMAWYRRAPGKQRELVAAISSISSGGRTDYADFVKGRFTIFRDTAKNMVYLQMNNLKPEDTAVYDCDDPIRVASLAYDDWGQGTQVTVSS",0.46,2
"DGL245 (bispecific antibody, V domains shown) V domain 1: EVQLVESGGGLVQPGGSLRLSCAASGFTLDYYTIGWFRQAPGKEREGVSCISSSGGSTNYADYVKGRFTISRDNAKNTVSLQMNSLKPEDTAVYYCAAESLIPLVETMCVMSVDDYDYWGQGTQVTVSS V domain 2: QLQLVESGGGLVQAGGSLRLSCAASRSITFSHNVMGWYRQAPGKQRELVASIGSGGSTNYVDSVKGRATISRDNAKKTVYLQMNSLKPEDTAVYYCGVVVGVYRGSLGQGTQVTVSS",2.1,8.6
"DGL247 (bispecific antibody, V domains shown) V domain 1: QVQLVESGGGSVQAGDSLRLSCAGSGRTFSSYVLGWFRQAPGKEREFVASISWSGDGTYYADSVKGRFTISRDNAENMVYLQMNSLKPEDTAVYYCAADGTTALAMSRLDASTYDFDYWGQGTQVTVSS V domain 2: QLQLVESGGGLVQAGGSLRLSCAASRSITFSHNVMGWYRQAPGKQRELVASIGSGGSTNYVDSVKGRATISRDNAKKTVYLQMNSLKPEDTAVYYCGVVVGVYRGSLGQGTQVTVSS",0.53,2.2
"DGL249 (bispecific antibody, V domains shown) V domain 1: QVQLVESGGGLVQPGGSLRLSCTASGSDLHHYAIGWFRQAPGKEREGVSCISTTGAGTNYADSVKGRFTISRDNAKNTVYLQMDSLKPEETAVYYCAADGPSAIAGCVRTVASMYRYWGQGAQVTVSS V domain 2: QLQLVESGGGLVQAGGSLRLSCAASRSITFSHNVMGWYRQAPGKQRELVASIGSGGSTNYVDSVKGRATISRDNAKKTVYLQMNSLKPEDTAVYYCGVVVGVYRGSLGQGTQVTVSS",0.12,0.5
"DGL248 (bispecific antibody, V domains shown) V domain 1: QLQLVESGGGLVQPGGSLRLSCAASGFTLDYYAISWFRQVPGKEREGVSCISSNGGSTAYADSVKGRFTISRDNTKNTAYLQMNSLKPEDTAIYYCAASARTIQAMCQRSNFPTRYDYWGQGTQVTVSS V domain 2: QLQLVESGGGLVQAGGSLRLSCAASRSITFSHNVMGWYRQAPGKQRELVASIGSGGSTNYVDSVKGRATISRDNAKKTVYLQMNSLKPEDTAVYYCGVVVGVYRGSLGQGTQVTVSS",0.44,1.8
"DGL256 (bispecific antibody, V domains shown) V domain 1: QVQLVESGGGLVQPGGSLRLSCTASGSDLHHYAIGWFRQAPGKEREGVSCISTTGAGTNYADSVKGRFTISRDNAKNTVYLQMDSLKPEETAVYYCAADGPSAIAGCVRTVASMYRYWGQGAQVTVSS V domain 2: QVQLVESGGGLVQPGGSLRLSCAASRITFSIYDMGWYRQAPGKQRELVASITRRGSTNYADSTKGRFTISRDNGKNTMYLQGNSLKPEDTAVYYCNARDILGRDYWGQGTQVTVSS",0.42,1.7
"DGL250 (bispecific antibody, V domains shown) V domain 1: QVQLVESGGGLVQAGGSLRLSCAASGRTFSKHAMGWFRQAPGKEREFVAAIDWSGGSTYYADSVKGRFTISRDNAKNTVYLQMDSLKPEDTAVYYCAADSYTDYAQLWLPELESEYDYWGQGTQVTVSS V domain 2: QLQLVESGGGLVQPGGSLRLSCAAPGRIFGLNAMGWYRQAPGKQRELVASITTGGSTNYADSGKGRFTLSRSNAQNTVYRQMNSLQPEDTAVYYCNAKRGLNLNYWGQGTQVTVSS",0.49,2
"DGL252 (bispecific antibody, V domains shown) V domain 1: QVQLVESGGGLVQAGGSLRLSCAASGRTFSKHAMGWFRQAPGKEREFVAAIDWSGGSTYYADSVKGRFTISRDNAKNTVYLQMDSLKPEDTAVYYCAADSYTDYAQLWLPELESEYDYWGQGTQVTVSS V domain 2: QVQLQESGGGLVQAGGSLRLSCAASASIFSRYAIGWYRQAPGKQRDLVAAITSGGTTNYADSVKGRFTISTDNAKNTVYLQMNSLKPEDTAVYSCAAGDSRANYYWGQGTQVTVSS",0.32,1.3
"DGL255 (bispecific antibody, V domains shown) V domain 1: QVQLVESGGGLVQAGGSLRLSCAASGRTFSKHAMGWFRQAPGKEREFVAAIDWSGGSTYYADSVKGRFTISRDNAKNTVYLQMDSLKPEDTAVYYCAADSYTDYAQLWLPELESEYDYWGQGTQVTVSS V domain 2: QVQLVESGGGLVQPGGSLRLSCAASRITFSIYDMGWYRQAPGKQRELVASITRRGSTNYADSTKGRFTISRDNGKNTMYLQGNSLKPEDTAVYYCNARDILGRDYWGQGTQVTVSS",0.32,1.3
"DGL296 (bispecific antibody, V domains shown) V domain 1: QVQLVESGGGLVQAGGSLRLSCAASGRTFSKHAMGWFRQAPGKEREFVAAIDWSGGSTYYADSVKGRFTISRDNAKNTVYLQMDSLKPEDTAVYYCAADSYTDYAQLWLPELESEYDYWGQGTQVTVSS V domain 2: QVQLVESGGDLVLPGGSLKLSCEASGSISSRNSMAWYRRAPGKQRELVAAISSISSGGRTDYADFVKGRFTIFRDTAKNMVYLQMNNLKPEDTAVYDCDDPIRVASLAYDDWGQGTQVTVSS",0.66,2.9
"DGL254 (bispecific antibody, V domains shown) V domain 1: QVQLVESGGGLVQAGGSLRLSCAASGRTFSKHAMGWFRQAPGKEREFVAAIDWSGGSTYYADSVKGRFTISRDNAKNTVYLQMDSLKPEDTAVYYCAADSYTDYAQLWLPELESEYDYWGQGTQVTVSS V domain 2: QVQLVESGGGLVQAGGSLRLSCAASESIFSFVAMGWYRQAPGKQRELVVKISSGGSTNYADSVKGRFTISRDNAKNTVYLEMNSLKFEDTGVYYCNAVRPNGMDYWGKGTLVTVSS",0.3,1.2
"DGL251 (bispecific antibody, V domains shown) V domain 1: QVQLVESGGGLVQAGGSLRLSCAASGRTFSKHAMGWFRQAPGKEREFVAAIDWSGGSTYYADSVKGRFTISRDNAKNTVYLQMDSLKPEDTAVYYCAADSYTDYAQLWLPELESEYDYWGQGTQVTVSS V domain 2: EVQLVESGGGLVQTGGSLRLSCVASETITDTFRMGWYRQAPGQQRELVAAITHTSETTYGDSVTGRFTISGDTAKNMVHLQMNSLKPEDTGVYYCNIRAWRRPDYWGQGTQVTVSS",0.31,1.3
"DGL253 (bispecific antibody, V domains shown) V domain 1: QVQLVESGGGLVQAGGSLRLSCAASGRTFSKHAMGWFRQAPGKEREFVAAIDWSGGSTYYADSVKGRFTISRDNAKNTVYLQMDSLKPEDTAVYYCAADSYTDYAQLWLPELESEYDYWGQGTQVTVSS V domain 2: QVQLQESGGGLVQAGGSPRLSCAVSGTAFNINNFMGWYRQAPGKQRELVATITGSSTTNYASSVKGRFTISRDSAKNTVYLQMNSLKPEDTAVYYCNLRRGGWYNYWGQGTQVTVSS",0.29,1.2
